Data: PMC6754363

Molecular target: Bacillus anthracis ribonucleotide reductase subunit NrdF (Bacillus anthracis) (UniProt Q81TB4)
Assay: crystal structure

Substance: Bacillus anthracis ribonucleotide reductase subunit NrdF (from UniProt Q81TB4 1-322) (enzyme)
- stoichiometry N: 2
